The values that follow come from publication PMC4643876, “Picomolar Inhibition of Plasmepsin V, an Essential Malaria Protease, Achieved Exploiting the Prime Region” (PLoS ONE, 2015).

The target in experiment [1] is GFP-tagged Plasmepsin V (PmV-GFP), P. falciparum clone DC6 (Plasmodium falciparum).
Experiment [2] has the same target. The source holds these as a separate data set.
Experiment [3] has the same target. The source holds these as a separate data set.

Like-named read-outs stand apart in the source and are kept apart here. Ends that are not written are not given here. * marks the point of attachment. Biotin = O=C1N[C@H]2[C@H](CS[C@H]2CCCCC(=O)*)N1; Octanoyl = CCCCCCCC(=O)*; GABA = NCCCC(=O)O

Chain of GFP-tagged Plasmepsin V (PmV-GFP), P. falciparum clone DC6 (Plasmodium falciparum) (Q8I6Z5 whole entry): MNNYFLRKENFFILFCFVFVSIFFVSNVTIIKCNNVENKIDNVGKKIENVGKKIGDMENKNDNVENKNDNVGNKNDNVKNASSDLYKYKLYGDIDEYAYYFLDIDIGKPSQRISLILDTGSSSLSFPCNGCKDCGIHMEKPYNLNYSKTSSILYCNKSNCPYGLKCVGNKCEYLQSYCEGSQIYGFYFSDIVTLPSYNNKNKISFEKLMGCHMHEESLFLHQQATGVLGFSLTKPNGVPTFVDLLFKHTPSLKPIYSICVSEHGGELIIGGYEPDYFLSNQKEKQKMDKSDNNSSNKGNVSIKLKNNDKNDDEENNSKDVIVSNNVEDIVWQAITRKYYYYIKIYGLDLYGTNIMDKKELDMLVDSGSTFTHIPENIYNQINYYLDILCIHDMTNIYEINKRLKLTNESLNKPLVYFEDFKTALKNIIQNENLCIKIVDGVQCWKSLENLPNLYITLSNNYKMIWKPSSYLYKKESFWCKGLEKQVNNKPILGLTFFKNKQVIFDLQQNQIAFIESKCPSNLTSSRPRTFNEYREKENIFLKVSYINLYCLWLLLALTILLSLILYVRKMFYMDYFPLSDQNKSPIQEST

Octanoyl-RLLYEA (not fully specified) [Compound 37a (octanoyl group at the N-terminus of Compound 7a)] registered an IC50 of inhibition of PmV cleavage of the fluorogenic HRPII-PExEl substrate in experiment [1] of 0.023 nM.

The molecule {Biotin-GABA-GABA}-RLLAEA (also: hydroxyethylamino (HEA) isostere replaces P1 Leu-P1' Ala peptide bond) [Compound 36, a biotinylated version of Compound 1] registered an in vitro inhibitory activity (IC50) against PmV cleavage of the fluorogenic HRPII-PExEl substrate in experiment [2] of 42 nM. In the case of RLLYEA [Compound 37b (R epimer of Compound 37)], the IC50 of inhibition of PmV cleavage of the fluorogenic HRPII-PExEl substrate in experiment [3] is 1.57 nM. On the same count and under the same terms, with RLLAQA [Compound 8b (R epimer of Compound 8, glutamine in P2')] the figure was 188 nM.
